{"source": "patent US5424205A", "about": "“Amyloidin protease and uses thereof” (Athena Neurosciences, Inc., priority 1993, dated 1995)", "key": {"amyloidin [1]": {"target": "T1, amyloidin (Homo sapiens, UniProt P52888)", "T1 construct": "from tissue; a purification from blood is also described", "T1 sequence (P52888 whole entry)": "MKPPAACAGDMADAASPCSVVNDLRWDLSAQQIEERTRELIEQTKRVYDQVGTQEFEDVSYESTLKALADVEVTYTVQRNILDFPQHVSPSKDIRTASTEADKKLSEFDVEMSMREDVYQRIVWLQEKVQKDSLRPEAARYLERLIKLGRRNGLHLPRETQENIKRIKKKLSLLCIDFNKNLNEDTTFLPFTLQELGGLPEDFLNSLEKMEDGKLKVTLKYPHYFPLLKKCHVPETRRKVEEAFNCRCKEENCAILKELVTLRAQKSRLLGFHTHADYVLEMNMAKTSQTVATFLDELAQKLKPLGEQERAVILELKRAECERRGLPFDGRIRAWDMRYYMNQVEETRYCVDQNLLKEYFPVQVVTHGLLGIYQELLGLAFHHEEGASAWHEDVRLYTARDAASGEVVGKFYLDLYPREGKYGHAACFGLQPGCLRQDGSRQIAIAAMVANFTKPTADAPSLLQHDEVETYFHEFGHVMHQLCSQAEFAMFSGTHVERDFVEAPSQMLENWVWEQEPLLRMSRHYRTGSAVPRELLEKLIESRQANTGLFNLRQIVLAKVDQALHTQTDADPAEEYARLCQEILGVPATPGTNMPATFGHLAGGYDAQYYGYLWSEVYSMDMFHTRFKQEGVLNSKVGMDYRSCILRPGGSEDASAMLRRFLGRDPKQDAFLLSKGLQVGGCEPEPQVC", "experiment": "Cleavage of APP592-601 and its analogs by amyloidin (subsite requirements)", "format": "biochemical", "conditions": "pH 7.5, CaCl2, 37° C., 60 min; RP-HPLC", "protocol": "(§1) Routinely, 25 ul of enzyme solution were mixed with 10 ul of 1M Tris, pH 7.5, 5 ul 10 mM CaCl2, and 10 ul of a 2 mg/ml Stock solution of APP592-601 in water, or 20 mM Tris, pH 7.5, 0.15M NaCl, in 1.5 ml polypropylene microfuge tubes. The reaction mixtures were incubated for 60 min at 37° C. in a water bath, then quenched with 450 ul ice-cold ethanol, and incubated on ice for a further 20 min. They were centrifuged at 15,000×g for 10 min, and the supernatants transferred to new polypropylene tubes and dried under vacuum. The residue was dissolved in 0.5 ml water, centrifuged at 15,000×g for 5 min, and 200 ul of the supernatant injected onto a 0.46×30 cm Vydac C18 column equilibrated with 0.1% trifluoroacetic acid in water, at 1 ml/min. The column was immediately eluted with a linear gradient to 40% acetronitrile in 0.1% trifluoroacetic acid in water, over 20 minutes. The elution was monitored at 220 nm, and peaks were individually collected, hydrolyzed in 6N HCl at […] for 2 hr, then subjected to quantitative amino-acid analysis in an Applied Biosystems amino-acid analyzer. Once identified, times of elution were used to identify cleavage patterns.\nIn order to test the subsite requirements of amyloidin in the APP592-601 cleavage assay, analogs of this peptide substrate were synthesized.\nFollowing synthesis and purification, the peptides were then incubated with amyloidin under conditions identical to those developed with APP592-601. The underlined residues designated changes from the native peptide sequence while the arrows indicate peptide cleavage sites. [drawing 5]"}, "human skin chymase (HSC) [2]": {"tested_on": "human skin chymase (HSC)", "experiment": "Cleavage of APP592-601 by human skin chymase", "format": "biochemical", "conditions": "200 ng enzyme; standard peptide cleavage assay", "protocol": "as §1"}, "[3]": {"tested_on": "extracts of mammalian tissues", "experiment": "Cleavage of amyloid-like substrate by soluble tissue extracts", "format": "biochemical", "conditions": "low-ionic strength extract; 0.1 to 10 mM Ca++; pH 6.5 to 8", "protocol": "To isolate the amyloid protease activities of the present invention, extracts of mammalian tissues were made in a variety of aqueous buffers, such as, for example, Tris, phosphate and HEPES, of about 20-50 mM pH 7.5, at 4°-8° C., using conventional homogenation procedures, such as, for example, Waring blender or Teflon homogenizer, followed by repeated centrifugation at 10,000-15,000×g. The supernatant soluble fraction from this stage (\"low ionic strength\") are decanted and the pellet is further extracted with high ionic strength salt, for example 1M NaCl, and a detergent, such as 1% Triton X-100. If, however, the amyloidin proteases are to be isolated from mammalian cells such as erythrocytes, conventional cell disruption techniques may be employed. Such techniques include homogenization, sonication, osmotic lysis and pressure cycling. Prior to disruption, the cells may be first concentrated by filtration, centrifugation, or other conventional methods.\nThe various extracts are generally incubated with the amyloid-like substrates under a variety of conditions. […]\nAliquots of the sample are analyzed by injection onto a C18 reversed-phase HPLC column and elution with a 0-60% gradient of 0.1% TFA/acetonitrile, to assess the degradation of the substrate. […] Little peptide cleavage activity was detected under other extraction conditions, for example, with high salt or detergents. […]"}, "clipsin/RMCP I": {"target": "T2, clipsin/RMCP I (Rattus norvegicus, UniProt P09650)", "T2 sequence (P09650 21-260)": "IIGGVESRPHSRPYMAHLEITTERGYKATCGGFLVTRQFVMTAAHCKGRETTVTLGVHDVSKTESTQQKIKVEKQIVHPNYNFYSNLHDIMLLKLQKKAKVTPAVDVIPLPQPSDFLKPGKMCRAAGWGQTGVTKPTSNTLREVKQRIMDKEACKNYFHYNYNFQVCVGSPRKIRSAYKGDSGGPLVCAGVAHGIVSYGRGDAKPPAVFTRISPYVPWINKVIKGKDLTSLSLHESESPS", "experiment": "Cleavage of APP592-601 by clipsin/RMCP I", "format": "biochemical", "conditions": "standard peptide cleavage assay", "protocol": "as §1\nThe procedure to isolate RMCP I was adapted exactly from that described by Nelson & Siman (1990), supra. […]"}, "human skin chymase (HSC) [4]": {"tested_on": "human skin chymase (HSC)", "conditions": "known before; cited from earlier work"}, "RMCP I [5]": {"tested_on": "RMCP I", "experiment": "Inhibition of RMCP I, APP592-601 cleaving activity", "format": "biochemical, rat", "conditions": "pre-treatment with 200 ng"}, "RMCP I [6]": {"tested_on": "RMCP I", "conditions": "known before; listed as α1 -antichymotrypsin; cited from earlier work"}, "brain protease": {"tested_on": "brain protease", "conditions": "Abraham et al; cited from earlier work"}, "RMCP I [7]": {"tested_on": "RMCP I", "experiment": "Inhibition of RMCP I, Suc-Ala-Ala-Pro-Phe-pNA hydrolysing activity", "format": "biochemical, rat", "conditions": "pre-treatment with 200 ng"}, "amyloidin [8]": {"target": "T1, amyloidin", "experiment": "Inhibition of amyloidin by various inhibitors (APP592-601 peptide cleavage)", "format": "biochemical"}}, "note": "Entries after “also recorded” stand apart in the source; their conditions may differ. Residues, ends and D or L forms follow the SMILES beside them.", "data": [{"molecule": "CSCC[C@H](NC(=O)[C@H](CCCCN)NC(=O)[C@@H](NC(=O)[C@H](CCC(=O)O)NC(=O)[C@H](CO)NC(C)=O)C(C)C)C(=O)N[C@@H](CC(=O)O)C(=O)N[C@@H](C)C(=O)N[C@@H](CCC(=O)O)C(=O)N[C@@H](Cc1ccccc1)C(=O)N[C@@H](CCCNC(=N)N)C(=O)O", "note": "[APP592-601] (Ac-SEVKMDAEFR-OH)", "values": [{"measurement": "site of cleavage by amyloidin", "setting": "amyloidin [1]", "result": "three-site cleavage"}, {"measurement": "site of cleavage of APP592-601 by human skin chymase", "setting": "human skin chymase (HSC) [2]", "result": "cleavage at the Met-Asp bond; also recorded: all three proteases cleaved the APP592-601 peptide at the Met-Asp bond"}, {"measurement": "major sites of cleavage by crude tissue extract", "setting": "[3]", "result": "between the Met-Asp, the Asp-Ala, and the Ala-Glu bonds"}, {"measurement": "site of cleavage of APP592-601 by clipsin/RMCP I", "setting": "clipsin/RMCP I", "result": "cleavage at the Met-Asp bond; also recorded: selectively cleaves the amyloid substrate APP592-601 at the Met-Asp peptide bond; also recorded: all three proteases cleaved the APP592-601 peptide at the Met-Asp bond"}]}, {"molecule": "α1-ACT: general plasma serine proteinase inhibitor (protein, UniProt P01011 24-423, looked up) Alpha-1-antichymotrypsin: HPNSPLDEENLTQENQDRGTHVDLGLASANVDFAFSLYKQLVLKAPDKNVIFSPLSISTALAFLSLGAHNTTLTEILKGLKFNLTETSEAEIHQSFQHLLRTLNQSSDELQLSMGNAMFVKEQLSLLDRFTEDAKRLYGSEAFATDFQDSAAAKKLINDYVKNGTRGKITDLIKDLDSQTMMVLVNYIFFKAKWEMPFDPQDTHQSRFYLSKKKWVMVPMMSLHHLTIPYFRDEELSCTVVELKYTGNASALFILPDQDKMEEVEAMLLPETLKRWRDSLEFREIGELYLPKFSISRDYNLNDILLQLGIEEAFTSKADLSGITGARNLAVSQVVHKAVLDVFEEGTEASAATAVKITLLSALVETRTIVRFNRPFLMIIVPTDTQNIFFMSKVTNPKQA", "values": [{"measurement": "inhibition of HSC, as known", "setting": "human skin chymase (HSC) [4]", "result": "inhibitable"}, {"measurement": "inhibition of APP592-601 cleaving protease activity", "setting": "RMCP I [5]", "result": "completely inhibited"}, {"measurement": "inhibition of RMCP I, as known", "setting": "RMCP I [6]", "result": "strong inhibitor of RMCP I; also recorded: inhibitable"}, {"measurement": "inhibition of peptide cleavage by brain protease", "setting": "brain protease", "result": "inhibited"}, {"measurement": "inhibition of Suc-Ala-Ala-Pro-Phe-pNA hydrolysing activity", "setting": "RMCP I [7]", "result": "completely eliminated"}, {"measurement": "% Control Activity", "setting": "amyloidin [8]; assay conc. 30 ug/ml, 30 min pre-incubation, room temperature", "result": 121, "unit": "%"}, {"measurement": "inhibitory effect on amyloidin", "setting": "amyloidin [8]; in words", "result": "Neither α-1-proteinase inhibitor or α-1-antichymotrypsin, two general plasma serine proteinase inhibitors, had any inhibitory effect"}]}]}
